Here are results for 21 substances from patent publication US5985836A, “Alpha-1 proteinase inhibitor binding peptides” (Bayer Corporation, priority 1998, dated 1999).

Ends that are not written are not given here.

The experiment addresses T1, A1PI (Homo sapiens, UniProt P01009).
T1 construct: Human plasma is currently the only approved source of therapeutic AlPI
Nature of the experiment: A1PI binding on peptide-resin column, injection of 1 mg A1PI in equilibration buffer. The conditions noted are these: for % of Total A1PI Eluted by Fraction (Based on Absorbance at 280 nm), 1M NaCl / % of Total A1PI Eluted by Fraction (Based on Absorbance at 280 nm), 2% Acetic Acid / % of Total A1PI Eluted by Fraction (Based on Absorbance at 280 nm), Flowthrough: 1 mg A1PI; for Percent AlPI Eluted by Fraction, 1M NaCl / Percent AlPI Eluted by Fraction, 2% Acetic Acid / Percent AlPI Eluted by Fraction, Flowthrough: sequence order, 1 mg AlPI. The protocol: Confirmatory binding assays were performed in a column chromatographic format on a microbore HPLC using individual peptide sequences synthesized directly onto the Toyopearl 650 M Chelate resin which had been modified with Totda followed by an alanine residue (A-Totda-Toyopearl), at a final substitution density of 0.1 mmole/g resin. The resin was packed into 0.4×5 cm columns (Thomson, Springfield, Va.) and tested on the Michrom HPLC system (Michrom BioResources, Auburn, Calif.). The elution program for all trials utilized the following method. The column was pre-equilibrated with equilibration buffer (as above). 1 ml of sample was injected and allowed sufficient time to flowthrough the column using equilibration buffer. The column was then washed with step elutions of 1M NaCl and 3M NaCl in equilibration buffer. The column was exposed to equilibration buffer with 0.1M NaCl. Any remaining protein was eluted with elution buffer (2% by volume glacial acetic acid in water).
A Gilson FC204 fraction collector at the HPLC outlet collected individual eluates for further analysis. Fractions collected from the 2% acetic acid eluates were neutralized with 2M Tris, pH 10.5 to bring the pH to neutrality. The protein samples were reconstituted in equilibration buffer unless otherwise stated. The samples were analyzed by the integration of the absorbance at 280 nm or by immunonephelometry. The specific method of determination is presented for each figure.
Tables 2 and 3 present the elution profiles for 19 sequences based on the injection of 1 mg AlPI in equilibration buffer at 4° C. and 20° C., respectively. The columns were run at a constant flow rate of865 μl/min (413 cm/hr) or 523 μl/min (250 cm/hr). No dependence of the elution profile with flow rate was found. The Percent AlPI Eluted by Fraction represents the amount eluted in the flowthrough, 1M NaCl wash, and 2% acetic acid fractions relative to the total AlPI eluted. The percentages are based on either the integration of the peak areas at […]

The mark [1] stands for this setting: VIWLVR N-terminal point mutations, 4° C.

T1 sequence (P01009 25-418): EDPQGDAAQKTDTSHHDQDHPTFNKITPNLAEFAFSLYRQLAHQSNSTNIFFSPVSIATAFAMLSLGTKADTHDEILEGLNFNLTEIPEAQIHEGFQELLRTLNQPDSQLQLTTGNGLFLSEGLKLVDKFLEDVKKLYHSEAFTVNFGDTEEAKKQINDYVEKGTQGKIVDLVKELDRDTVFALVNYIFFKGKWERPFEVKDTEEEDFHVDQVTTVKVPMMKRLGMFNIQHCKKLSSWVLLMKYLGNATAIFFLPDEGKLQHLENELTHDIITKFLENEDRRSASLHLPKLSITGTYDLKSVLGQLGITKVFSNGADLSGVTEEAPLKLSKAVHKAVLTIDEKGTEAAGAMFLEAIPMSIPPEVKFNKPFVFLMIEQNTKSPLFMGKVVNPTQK

As for “NDWLVR: point mutation of VIWLVR on Ala-Totda-Toyopearl (not fully specified (C-terminus))”, under setting [1], the “% of Total A1PI Eluted by Fraction (Based on Absorbance at 280 nm), 1M NaCl” value (from here on “% of Total A1PI Eluted by Fraction … 1M NaCl”) was determined as 0%; the “% of Total A1PI Eluted by Fraction (Based on Absorbance at 280 nm), 2% Acetic Acid” value was found to be 0%; the “% of Total A1PI Eluted by Fraction (Based on Absorbance at 280 nm), Flowthrough” value (shortened to “% of Total A1PI Eluted by Fraction … Flowthrough”) was 100%.
For “V I F L F R: point mutation of VIFLVR, position 5 (VIFLFR)”, where the note is “VIFLVR point mutations, 4° C.”, the “% of Total A1PI Eluted by Fraction … 1M NaCl” value is recorded as 3%; the “% of Total A1PI Eluted by Fraction (Based on Absorbance at 280 nm), 2% Acetic Acid” value is given as 56%; the “% of Total A1PI Eluted by Fraction … Flowthrough” value is listed as 40%.
In the case of “DHWLVR: point mutation of VIWLVR on Ala-Totda-Toyopearl (not fully specified (C-terminus))”, under setting [1], the “% of Total A1PI Eluted by Fraction … 1M NaCl” value is reported as 37%; the “% of Total A1PI Eluted by Fraction (Based on Absorbance at 280 nm), 2% Acetic Acid” value is 10%; the “% of Total A1PI Eluted by Fraction … Flowthrough” value worked out at 53%.
“HSWLVR: point mutation of VIWLVR on Ala-Totda-Toyopearl (not fully specified (C-terminus))”: under setting [1], the “% of Total A1PI Eluted by Fraction … 1M NaCl” value was determined as 89%; the “% of Total A1PI Eluted by Fraction (Based on Absorbance at 280 nm), 2% Acetic Acid” value was 11%; the “% of Total A1PI Eluted by Fraction … Flowthrough” value is listed as 0%.
As to “V H F L V R: point mutation of VIFLVR, position 2 (VHFLVR)”, for the setting “VIFLVR point mutations, 4° C.”, the “% of Total A1PI Eluted by Fraction … 1M NaCl” value came out at 35%; the “% of Total A1PI Eluted by Fraction (Based on Absorbance at 280 nm), 2% Acetic Acid” value stood at 65%; the “% of Total A1PI Eluted by Fraction … Flowthrough” value turned out to be 0%.
As to “SHWLVR: point mutation of VIWLVR on Ala-Totda-Toyopearl (not fully specified (C-terminus))”, under setting [1], the “% of Total A1PI Eluted by Fraction … 1M NaCl” value was 87%; the “% of Total A1PI Eluted by Fraction (Based on Absorbance at 280 nm), 2% Acetic Acid” value is reported as 13%; the “% of Total A1PI Eluted by Fraction … Flowthrough” value is reported as 0%.
Take “SDWLVR: point mutation of VIWLVR on Ala-Totda-Toyopearl (not fully specified (C-terminus))”: under setting [1], the “% of Total A1PI Eluted by Fraction … 1M NaCl” value stood at 1%; the “% of Total A1PI Eluted by Fraction (Based on Absorbance at 280 nm), 2% Acetic Acid” value was 1%; the “% of Total A1PI Eluted by Fraction … Flowthrough” value is 98%.
For “SNWLVR: point mutation of VIWLVR on Ala-Totda-Toyopearl (not fully specified (C-terminus))”, under setting [1], the “% of Total A1PI Eluted by Fraction … 1M NaCl” value is given as 95%; the “% of Total A1PI Eluted by Fraction (Based on Absorbance at 280 nm), 2% Acetic Acid” value is given as 5%; the “% of Total A1PI Eluted by Fraction … Flowthrough” value is recorded as 0%.
For the substance “Ac-RVLFIV: N-terminal acetylated Ac-RVLFIV (listed under SEQ ID No:61)”, for the setting “4° C.”, the “Percent AlPI Eluted by Fraction, 1M NaCl” value was 11%; the “Percent AlPI Eluted by Fraction, 2% Acetic Acid” value is reported as 13%; the “Percent AlPI Eluted by Fraction, Flowthrough” value was found to be 76%. Further, for the setting “20° C.”, the “Percent AlPI Eluted by Fraction, 1M NaCl” value is recorded as 31%; the “Percent AlPI Eluted by Fraction, 2% Acetic Acid” value is reported as 50%; the “Percent AlPI Eluted by Fraction, Flowthrough” value came out at 19%.
Regarding “V I F L A R: point mutation of VIFLVR, position 5 (VIFLAR)”, where the note is “VIFLVR point mutations, 4° C.”, the “% of Total A1PI Eluted by Fraction … 1M NaCl” value came out at 25%; the “% of Total A1PI Eluted by Fraction (Based on Absorbance at 280 nm), 2% Acetic Acid” value was found to be 75%; the “% of Total A1PI Eluted by Fraction … Flowthrough” value came out at 0%. Besides, for the setting “VIFLVR point mutations, 20° C.”, the “% of Total A1PI Eluted by Fraction … 1M NaCl” value turned out to be 0%; the “% of Total A1PI Eluted by Fraction (Based on Absorbance at 280 nm), 2% Acetic Acid” value stood at 25%; the “% of Total A1PI Eluted by Fraction … Flowthrough” value turned out to be 75%.
Consider “NSWLVR: point mutation of VIWLVR on Ala-Totda-Toyopearl (not fully specified (C-terminus))”, for which, under setting [1], the “% of Total A1PI Eluted by Fraction … 1M NaCl” value is 43%; the “% of Total A1PI Eluted by Fraction (Based on Absorbance at 280 nm), 2% Acetic Acid” value amounted to 5%; the “% of Total A1PI Eluted by Fraction … Flowthrough” value turned out to be 52%.
Taken in the same sequence, the figures for “HDWLVR: point mutation of VIWLVR on Ala-Totda-Toyopearl (not fully specified (C-terminus))” were 30%, 0% and 70%.
As to “V I R L V R: VIWLVR with Trp at position 3 replaced by Arg (VIRLVR)”, for the setting “Trp position mutations, 4° C.”, the “% of Total A1PI Eluted by Fraction … 1M NaCl” value turned out to be 90%; the “% of Total A1PI Eluted by Fraction (Based on Absorbance at 280 nm), 2% Acetic Acid” value came to 10%; the “% of Total A1PI Eluted by Fraction … Flowthrough” value amounted to 0%. Moreover, where the note is “Trp position mutations, 20° C.”, the “% of Total A1PI Eluted by Fraction … 1M NaCl” value was 45%; the “% of Total A1PI Eluted by Fraction (Based on Absorbance at 280 nm), 2% Acetic Acid” value is 55%; the “% of Total A1PI Eluted by Fraction … Flowthrough” value is recorded as 0%.
In the case of “HNWLVR: point mutation of VIWLVR on Ala-Totda-Toyopearl (not fully specified (C-terminus))”, under setting [1], the “% of Total A1PI Eluted by Fraction … 1M NaCl” value came out at 92%; the “% of Total A1PI Eluted by Fraction (Based on Absorbance at 280 nm), 2% Acetic Acid” value is 8%; the “% of Total A1PI Eluted by Fraction … Flowthrough” value is listed as 0%.
Taken in the same sequence, the figures for “NNWLVR: point mutation of VIWLVR on Ala-Totda-Toyopearl (not fully specified (C-terminus))” were 13%, 4% and 83%.
“V K F L V R: point mutation of VIFLVR, position 2 (VKFLVR)”: for the setting “VIFLVR point mutations, 4° C.”, the “% of Total A1PI Eluted by Fraction … 1M NaCl” value stood at 66%; the “% of Total A1PI Eluted by Fraction (Based on Absorbance at 280 nm), 2% Acetic Acid” value came to 34%; the “% of Total A1PI Eluted by Fraction … Flowthrough” value came to 0%. Further, under “VIFLVR point mutations, 20° C.”, the “% of Total A1PI Eluted by Fraction … 1M NaCl” value amounted to 49%; the “% of Total A1PI Eluted by Fraction (Based on Absorbance at 280 nm), 2% Acetic Acid” value turned out to be 51%; the “% of Total A1PI Eluted by Fraction … Flowthrough” value came out at 0%.
“VIFLVA: point mutation of VIFLVR, position 6, C-terminal Arg replaced with Ala”: the “binding of AlPI (in words)” value was “little binding of AlPI”. For the same substance, under “VIFLVR point mutations, 4° C.”, the “% of Total A1PI Eluted by Fraction … 1M NaCl” value is listed as 2%; the “% of Total A1PI Eluted by Fraction (Based on Absorbance at 280 nm), 2% Acetic Acid” value is 21%; the “% of Total A1PI Eluted by Fraction … Flowthrough” value amounted to 77%. In addition, where the note is “VIFLVR point mutations, 20° C.”, the “% of Total A1PI Eluted by Fraction … 1M NaCl” value was 0%; the “% of Total A1PI Eluted by Fraction (Based on Absorbance at 280 nm), 2% Acetic Acid” value is reported as 8%; the “% of Total A1PI Eluted by Fraction … Flowthrough” value is reported as 92%.
For “V I F L Y R: point mutation of VIFLVR, position 5 (VIFLYR)”, for the setting “VIFLVR point mutations, 4° C.”, the “% of Total A1PI Eluted by Fraction … 1M NaCl” value was determined as 4%; the “% of Total A1PI Eluted by Fraction (Based on Absorbance at 280 nm), 2% Acetic Acid” value came out at 40%; the “% of Total A1PI Eluted by Fraction … Flowthrough” value was determined as 56%. Further, where the note is “VIFLVR point mutations, 20° C.”, the “% of Total A1PI Eluted by Fraction … 1M NaCl” value stood at 3%; the “% of Total A1PI Eluted by Fraction (Based on Absorbance at 280 nm), 2% Acetic Acid” value came out at 20%; the “% of Total A1PI Eluted by Fraction … Flowthrough” value was 77%.
Consider “N I F L V R: point mutation of VIFLVR, position 1 (NIFLVR)”, for which, where the note is “VIFLVR point mutations, 4° C.”, the “% of Total A1PI Eluted by Fraction … 1M NaCl” value came out at 25%; the “% of Total A1PI Eluted by Fraction (Based on Absorbance at 280 nm), 2% Acetic Acid” value is 75%; the “% of Total A1PI Eluted by Fraction … Flowthrough” value worked out at 0%.
As for “V I D L V R: VIWLVR with Trp at position 3 replaced by Asp (VIDLVR)”, under “Trp position mutations, 4° C.”, the “% of Total A1PI Eluted by Fraction … 1M NaCl” value came to 0%; the “% of Total A1PI Eluted by Fraction (Based on Absorbance at 280 nm), 2% Acetic Acid” value is 0%; the “% of Total A1PI Eluted by Fraction … Flowthrough” value stood at 100%. For the same substance, for the setting “Trp position mutations, 20° C.”, the “% of Total A1PI Eluted by Fraction … 1M NaCl” value turned out to be 0%; the “% of Total A1PI Eluted by Fraction (Based on Absorbance at 280 nm), 2% Acetic Acid” value was 16%; the “% of Total A1PI Eluted by Fraction … Flowthrough” value turned out to be 84%.
For the substance “DNWLVR: point mutation of VIWLVR on Ala-Totda-Toyopearl (not fully specified (C-terminus))”, under setting [1], the “% of Total A1PI Eluted by Fraction … 1M NaCl” value is 9%; the “% of Total A1PI Eluted by Fraction (Based on Absorbance at 280 nm), 2% Acetic Acid” value is reported as 1%; the “% of Total A1PI Eluted by Fraction … Flowthrough” value was 90%.
